This note sets out measurements from publication PMC9071432.

A word on the Kd: it is the constant that tells how readily two partners part at equilibrium. Low values mean higher affinity, high ones lower affinity.

This series concerns the target sg-Tu-Ts_dCC (Escherichia coli) (UniProt P0A6P1+P0CE48). Nature of the series: EMSA. The note with it: 10 mM Mg2+; printed >>30; none (in vitro transcript); EMSA: 50 mM Tris-Cl pH 7.4, 10 mM MgCl2, 50 mM NaCl, 10 mM b-ME, 10% glycerol, 37C 10 min, gel at ~25C; pull-down: Tu-GTP preincubated in 50 mM Tris-Cl pH 7.0 …. A general note: A gel shift assay detects complexes by their altered migration in electrophoresis.
Chain of UniProt P0A6P1 (P0A6P1 whole entry, chain 1 of 2): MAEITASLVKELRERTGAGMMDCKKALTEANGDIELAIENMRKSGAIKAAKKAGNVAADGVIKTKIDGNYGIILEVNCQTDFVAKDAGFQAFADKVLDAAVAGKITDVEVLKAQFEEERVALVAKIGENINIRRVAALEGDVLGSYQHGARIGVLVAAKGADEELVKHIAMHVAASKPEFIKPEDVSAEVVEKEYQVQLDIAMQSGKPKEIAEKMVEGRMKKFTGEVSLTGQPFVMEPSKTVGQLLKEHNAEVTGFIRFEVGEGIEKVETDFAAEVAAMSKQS
Chain of UniProt P0A6P1 (P0CE48 whole entry, chain 2 of 2): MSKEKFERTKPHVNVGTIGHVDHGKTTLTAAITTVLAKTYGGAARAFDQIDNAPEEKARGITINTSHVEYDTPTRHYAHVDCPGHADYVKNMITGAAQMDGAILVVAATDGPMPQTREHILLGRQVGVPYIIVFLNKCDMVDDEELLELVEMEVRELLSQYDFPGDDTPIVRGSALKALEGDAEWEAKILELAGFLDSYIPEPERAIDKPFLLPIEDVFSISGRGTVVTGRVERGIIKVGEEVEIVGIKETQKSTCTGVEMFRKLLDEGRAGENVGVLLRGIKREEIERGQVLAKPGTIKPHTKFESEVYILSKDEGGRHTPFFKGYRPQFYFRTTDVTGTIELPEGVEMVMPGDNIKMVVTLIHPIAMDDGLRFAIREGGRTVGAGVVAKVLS

In turn, “UGGGGUAUCGCCAAGCGGUAAGGCACCGGAUUCUGAUUCCGGCAUUCCGAGGUUCGAAUCCUCGUACCCCAGCCA [tRNAGln transcript (U1-A72, wt), uncharged]” yielded a Kd above 30 µM.
